Results on one protein are retold here after doi:10.1101/2021.06.09.447781 (bioRxiv, 2021).

The series “negative-stain EM” deals with the molecule itself. Nature of the series: negative-stain EM.
Series [1] concerns the molecule itself. The series is described as follows: cryo-EM structure.
Series [2] concerns the molecule itself. The series is described as follows: cryo-EM structure. This is another data set of the same source.

B1: B. subtilis ClpCDWB (E280A/E618A), catalytically inactive mutant (enzyme, UniProt P37571 1-810, looked up)
chain: MMFGRFTERAQKVLALAQEEALRLGHNNIGTEHILLGLVREGEGIAAKALQALGLGSEKIQKEVESLIGRGQEMSQTIHYTPRAKKVIELSMDEARKLGHSYVGTEHILLGLIREGEGVAARVLNNLGVSLNKARQQVLQLLGSNETGSSAAGTNSNANTPTLDSLARDLTAIAKEDSLDPVIGRSKEIQRVIEVLSRRTKNNPVLIGEPGVGKTAIAEGLAQQIINNEVPEILRDKRVMTLDMGTVVAGTKYRGEFEDRLKKVMDEIRQAGNIILFIDALHTLIGAGGAEGAIDASNILKPSLARGELQCIGATTLDEYRKYIEKDAALERRFQPIQVDQPSVDESIQILQGLRDRYEAHHRVSITDDAIEAAVKLSDRYISDRFLPDKAIDLIDEAGSKVRLRSFTTPPNLKELEQKLDEVRKEKDAAVQSQEFEKAASLRDTEQRLREQVEDTKKSWKEKQGQENSEVTVDDIAMVVSSWTGVPVSKIAQTETDKLLNMENILHSRVIGQDEAVVAVAKAVRRARAGLKDPKRPIGSFIFLGPTGVGKTELARALAESIFGDEESMIRIDMSEYMEKHSTSRLVGSPPGYVGYDEGGQLTEKVRRKPYSVVLLDAIEKAHPDVFNILLQVLEDGRLTDSKGRTVDFRNTILIMTSNVGASELKRNKYVGFNVQDETQNHKDMKDKVMGELKRAFRPEFINRIDEIIVFHSLEKKHLTEIVSLMSDQLTKRLKEQDLSIELTDAAKAKVAEEGVDLEYGARPLRRAIQKHVEDRLSEELLRGNIHKGQHIVLDVEDGEFVVKTTAKTN
What is called stoichiometry N is the number of molecules, sites or subunits per partner or assembly. In the case of B1, the entries for the “stoichiometry N” value in “negative-stain EM”, in “cryo-EM structure [1]” and in “cryo-EM structure [2]” were 10, 24 and 6, respectively.
